Results on one molecule are retold here after paper PMC13503762 (Nature Communications, 2026).

This test addresses SARS-CoV-2 M protein (purified, in LMNG/CHS detergent) (SARS-CoV-2, UniProt P0DTC5). Kind of test: cryo-EM structure. The settings on record: both partners purified.

B1: long conformation Fab (lcFab) (Fab, V domains shown)
VH: EVQLQQSGAELVRPGSSVKISCKGSGYVFSNYWMNWVKQRPGQGLEWIGQIYPGDGDTNYNGKFKGKATLTADKSSSTAYMQLSSLTSEDSAVYFCASGYLGENYVMDFWGQGTSVTVSS
VL: DIVLTQSPASLTVSLGQRATISCRASESVDSFGNSFMHWYQQKPGQPPKLLIYRASNLESGIPARFSGSGSRTDFTLTINPVEADDVATYYCQQSSEDPYTFGGGTKLEIK
notes: also called Fab targeting M_(long)
As to B1, the binding result was “binds”.
